Results published in the supplement of paper PMC9112550, “Optimization of the antimicrobial peptide Bac7 by deep mutational scanning” (BMC Biology, 2022).
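Further: peptides expressed intracellularly from a pBAD plasmid library in pooled LB shake-flask culture, induced with 0.3% L-arabinose, DNA abundance read by NGS, three biological replicates, DESeq2 with apeglm shrinkage.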

What follows are sequences tested on Escherichia coli TOP10 (assay: shrunken log2 fold change of peptide-encoding DNA abundance (4.5 h post-induction vs induction); higher = less antimicrobial activity (less host growth inhibition)). Details: time post-induction: 4.5 h; library: site-saturation at positions 5, 18, 19, 20.
With RRIRHRPPRLPRPRPRPPRFPRP the “shrunken log2 fold change” value was 0.578.
In the case of RRIRKRPPRLPRPRPRPKLQPRP, the “shrunken log2 fold change” value is reported as 0.423.
RRIRCRPPRLPRPRPRPCRPPRP was tested, and the “shrunken log2 fold change” value was -0.0339.
With RRIRDRPPRLPRPRPRPPKYPRP the “shrunken log2 fold change” value was -0.47.
With RRIRHRPPRLPRPRPRPRHIPRP the “shrunken log2 fold change” value was -0.39.
With RRIRIRPPRLPRPRPRPVEYPRP the “shrunken log2 fold change” value was -0.116.
With RRIRARPPRLPRPRPRPCCGPRP the “shrunken log2 fold change” value was 0.525.
For RRIRERPPRLPRPRPRPEGAPRP, the “shrunken log2 fold change” value was 0.592.
In the case of RRIRERPPRLPRPRPRPCAQPRP, the “shrunken log2 fold change” value is reported as -0.00638.
With RRIRSRPPRLPRPRPRPIHCPRP the “shrunken log2 fold change” value was -0.452.
For RRIRVRPPRLPRPRPRPDGNPRP, the “shrunken log2 fold change” value was -0.189.
With RRIRERPPRLPRPRPRPTKEPRP the “shrunken log2 fold change” value was -0.465.
With RRIRKRPPRLPRPRPRPWPCPRP the “shrunken log2 fold change” value was 0.161.
RRIRKRPPRLPRPRPRPHAPPRP was tested, and the “shrunken log2 fold change” value was 0.485.
With RRIRDRPPRLPRPRPRPSTPPRP the “shrunken log2 fold change” value was -0.238.
For RRIRMRPPRLPRPRPRPLVMPRP, the “shrunken log2 fold change” value was 0.0504.
With RRIRCRPPRLPRPRPRPIYCPRP the “shrunken log2 fold change” value was -0.14.
With RRIRCRPPRLPRPRPRPWGTPRP the “shrunken log2 fold change” value was -0.0869.
For RRIRIRPPRLPRPRPRPVNRPRP, the “shrunken log2 fold change” value was -0.195.
With RRIRCRPPRLPRPRPRPNATPRP the “shrunken log2 fold change” value was 0.382.
With RRIRKRPPRLPRPRPRPDLDPRP the “shrunken log2 fold change” value was 0.109.
For RRIRDRPPRLPRPRPRPSNHPRP, the “shrunken log2 fold change” value was -0.548.
With RRIRQRPPRLPRPRPRPFWLPRP the “shrunken log2 fold change” value was 0.0473.
For RRIRNRPPRLPRPRPRPTCGPRP, the “shrunken log2 fold change” value was 0.073.
For RRIRSRPPRLPRPRPRPDWEPRP, the “shrunken log2 fold change” value was -0.0106.
In the case of RRIRFRPPRLPRPRPRPLLMPRP, the “shrunken log2 fold change” value is reported as -0.564.
In the case of RRIRTRPPRLPRPRPRPFKMPRP, the “shrunken log2 fold change” value is reported as -0.184.
RRIRDRPPRLPRPRPRPKCFPRP was tested, and the “shrunken log2 fold change” value was 0.0766.
With RRIRSRPPRLPRPRPRPRMDPRP the “shrunken log2 fold change” value was -0.291.
With RRIRGRPPRLPRPRPRPTPPPRP the “shrunken log2 fold change” value was 1.06.
RRIRFRPPRLPRPRPRPTMDPRP was tested, and the “shrunken log2 fold change” value was -0.246.
With RRIRSRPPRLPRPRPRPFVVPRP the “shrunken log2 fold change” value was -0.0648.
RRIRLRPPRLPRPRPRPREGPRP was tested, and the “shrunken log2 fold change” value was 0.966.
With RRIRVRPPRLPRPRPRPCFCPRP the “shrunken log2 fold change” value was -0.252.
With RRIRKRPPRLPRPRPRPIGTPRP the “shrunken log2 fold change” value was 0.105.
RRIRNRPPRLPRPRPRPFSWPRP was tested, and the “shrunken log2 fold change” value was 0.0512.
For RRIRHRPPRLPRPRPRPGTAPRP, the “shrunken log2 fold change” value was -0.275.
RRIRIRPPRLPRPRPRPHGYPRP was tested, and the “shrunken log2 fold change” value was -0.714.
RRIRIRPPRLPRPRPRPPVHPRP was tested, and the “shrunken log2 fold change” value was -0.185.
In the case of RRIRFRPPRLPRPRPRPYVNPRP, the “shrunken log2 fold change” value is reported as -1.52.
In the case of RRIRTRPPRLPRPRPRPRSRPRP, the “shrunken log2 fold change” value is reported as 0.143.
RRIRTRPPRLPRPRPRPRAMPRP was tested, and the “shrunken log2 fold change” value was 0.41.
For RRIRLRPPRLPRPRPRPDYVPRP, the “shrunken log2 fold change” value was -0.432.
RRIRKRPPRLPRPRPRPEQNPRP was tested, and the “shrunken log2 fold change” value was 0.949.
RRIRNRPPRLPRPRPRPWGYPRP was tested, and the “shrunken log2 fold change” value was -0.123.
For RRIRGRPPRLPRPRPRPFGSPRP, the “shrunken log2 fold change” value was 0.081.
For RRIRPRPPRLPRPRPRPGPFPRP, the “shrunken log2 fold change” value was 0.574.
For RRIRLRPPRLPRPRPRPYDTPRP, the “shrunken log2 fold change” value was -0.925.
With RRIRERPPRLPRPRPRPMHWPRP the “shrunken log2 fold change” value was -0.0407.
RRIRTRPPRLPRPRPRPWKKPRP was tested, and the “shrunken log2 fold change” value was 0.0414.
For RRIRCRPPRLPRPRPRPTHQPRP, the “shrunken log2 fold change” value was 0.476.
With RRIRWRPPRLPRPRPRPMTIPRP the “shrunken log2 fold change” value was 0.025.
In the case of RRIRCRPPRLPRPRPRPTNCPRP, the “shrunken log2 fold change” value is reported as -0.282.
RRIRIRPPRLPRPRPRPDELPRP was tested, and the “shrunken log2 fold change” value was 0.0623.
For RRIRGRPPRLPRPRPRPLALPRP, the “shrunken log2 fold change” value was 0.665.
In the case of RRIRMRPPRLPRPRPRPPVMPRP, the “shrunken log2 fold change” value is reported as 0.616.
RRIRPRPPRLPRPRPRPSNIPRP was tested, and the “shrunken log2 fold change” value was -1.15.
In the case of RRIRERPPRLPRPRPRPYLPPRP, the “shrunken log2 fold change” value is reported as -0.392.
In the case of RRIRRRPPRLPRPRPRPDMPPRP, the “shrunken log2 fold change” value is reported as -0.0169.
For RRIRTRPPRLPRPRPRPRAHPRP, the “shrunken log2 fold change” value was -0.186.
For RRIRQRPPRLPRPRPRPWLQPRP, the “shrunken log2 fold change” value was 0.188.
For RRIRFRPPRLPRPRPRPNYMPRP, the “shrunken log2 fold change” value was -0.254.
With RRIRYRPPRLPRPRPRPKCGPRP the “shrunken log2 fold change” value was 0.0111.
RRIRWRPPRLPRPRPRPRGQPRP was tested, and the “shrunken log2 fold change” value was 0.302.
RRIRARPPRLPRPRPRPECKPRP was tested, and the “shrunken log2 fold change” value was 0.769.
With RRIRARPPRLPRPRPRPYRYPRP the “shrunken log2 fold change” value was -0.274.
In the case of RRIRYRPPRLPRPRPRPDGPPRP, the “shrunken log2 fold change” value is reported as 0.123.
For RRIRSRPPRLPRPRPRPQWNPRP, the “shrunken log2 fold change” value was -0.259.
With RRIRMRPPRLPRPRPRPNSNPRP the “shrunken log2 fold change” value was -0.177.
With RRIRRRPPRLPRPRPRPRRLPRP the “shrunken log2 fold change” value was 0.54.
With RRIRPRPPRLPRPRPRPRIDPRP the “shrunken log2 fold change” value was -0.0848.
For RRIRERPPRLPRPRPRPSFNPRP, the “shrunken log2 fold change” value was -0.637.
In the case of RRIRFRPPRLPRPRPRPWTQPRP, the “shrunken log2 fold change” value is reported as -0.959.
RRIRTRPPRLPRPRPRPRSFPRP was tested, and the “shrunken log2 fold change” value was -0.0927.
For RRIRSRPPRLPRPRPRPQQYPRP, the “shrunken log2 fold change” value was -0.525.
